{
  "source": "paper doi:10.1101/2025.03.21.644525",
  "about": "(bioRxiv, 2025)",
  "target": "T1, ARM domain of APC (residues 338-1010), untagged (Mus musculus, UniProt Q61315 338-1010)",
  "T1 sequence (looked up)": "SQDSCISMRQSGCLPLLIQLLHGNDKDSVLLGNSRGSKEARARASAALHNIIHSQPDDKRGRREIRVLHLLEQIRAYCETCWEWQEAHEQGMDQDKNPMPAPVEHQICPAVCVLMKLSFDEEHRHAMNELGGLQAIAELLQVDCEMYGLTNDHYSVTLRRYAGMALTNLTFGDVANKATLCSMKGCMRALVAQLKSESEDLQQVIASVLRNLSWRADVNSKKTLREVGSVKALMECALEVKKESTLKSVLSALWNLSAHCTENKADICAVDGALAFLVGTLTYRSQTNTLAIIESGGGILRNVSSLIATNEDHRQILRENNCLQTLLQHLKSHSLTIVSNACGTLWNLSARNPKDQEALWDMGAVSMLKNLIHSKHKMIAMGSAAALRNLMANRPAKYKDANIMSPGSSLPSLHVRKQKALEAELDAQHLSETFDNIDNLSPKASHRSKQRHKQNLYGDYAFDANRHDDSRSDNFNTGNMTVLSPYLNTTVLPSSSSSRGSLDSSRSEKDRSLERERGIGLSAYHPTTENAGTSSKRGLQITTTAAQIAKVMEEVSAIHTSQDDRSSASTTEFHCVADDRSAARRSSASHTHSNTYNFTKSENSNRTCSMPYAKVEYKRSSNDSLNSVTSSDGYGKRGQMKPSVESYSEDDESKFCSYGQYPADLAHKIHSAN",
  "assay": "cryo-EM structure",
  "data": [
    {"binder": "KIF3A C-terminal region (residues 481-701, ACT), N-terminal 6His tag (domain or fragment, Mus musculus, UniProt P28741 481-701, looked up) VIVGGVDLLAKAEEQEKLLEESNMELEERRRRAEQLRKELEEKEQERLDIEEKYTSLQEEAQGKTKKLKKVWTMLMAAKSEMADLQQEHQREIEGLLENIRQLSRELRLQMLIIDNFIPQDYQEMIENYVHWNEDIGEWQLKCVAYTGNNMRKQTPVPDKKERDPFEVDLSHVYLAYTEESLRQSLMKLERPRTSKGKARPKMGRRKRSAKPETVIDSLLQ", "values": [
      {"measurement": "binding result", "value": "binds"}
    ]}
  ]
}
